Measured values taken from article PMC5727262, “Molecular mechanism of K65 acetylation-induced attenuation of Ubc9 and the NDSM interaction” (Scientific Reports, 2017).

Molecular target: Ac-Ubc9K65 (Ubc9 acetylated at K65), P63279
Assay: ITC; 2 μl additions of peptide to 200 μl of WT Ubc9 or Ac-Ubc9K65; 25 °C; pH 8.0, 20 mM potassium phosphate, 100 mM NaCl; iTC200; fitted assuming 1:1 binding stoichiometry

Ac-Ubc9K65 (Ubc9 acetylated at K65), P63279, sequence (P63279 whole entry): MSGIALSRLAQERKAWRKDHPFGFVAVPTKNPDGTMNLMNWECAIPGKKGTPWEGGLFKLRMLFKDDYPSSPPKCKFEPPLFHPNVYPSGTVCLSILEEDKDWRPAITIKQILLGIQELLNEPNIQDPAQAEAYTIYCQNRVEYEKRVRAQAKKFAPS

- Kd: 105 µM
B1: CBP NDSM peptide (peptide)
chain: VKVEVKEEEESSSN
modifications: not checked
